Test results from paper doi:10.1101/2020.10.27.356691 (bioRxiv, 2020).

Target: T1, cytochrome P450 CYP124 from Mycobacterium tuberculosis (Mycobacterium tuberculosis, UniProt P9WPP3 1-428)
T1 sequence: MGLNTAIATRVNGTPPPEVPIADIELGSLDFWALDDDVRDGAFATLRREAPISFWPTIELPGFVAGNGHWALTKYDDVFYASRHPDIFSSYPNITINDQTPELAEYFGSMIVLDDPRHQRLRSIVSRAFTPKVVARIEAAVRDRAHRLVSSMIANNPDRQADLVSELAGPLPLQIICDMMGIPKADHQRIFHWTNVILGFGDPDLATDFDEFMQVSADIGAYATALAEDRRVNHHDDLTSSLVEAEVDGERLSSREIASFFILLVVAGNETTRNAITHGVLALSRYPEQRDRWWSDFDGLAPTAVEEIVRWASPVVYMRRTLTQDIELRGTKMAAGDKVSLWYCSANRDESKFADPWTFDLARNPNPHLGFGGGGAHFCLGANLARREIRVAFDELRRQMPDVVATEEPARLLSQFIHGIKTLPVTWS
Assay: ITC

B1: rubredoxin B (RubB) from Mycobacterium tuberculosis, wild type (natural protein)
chain: MNDYKLFRCIQCGFEYDEALGWPEDGIAAGTRWDDIPDDWSCPDCGAAKSDFEMVEVARS
  Kd: 12.8 µM
